Source: patent US20240181007A1, “COMPOSITIONS AND METHODS FOR TREATING PULMONARY HYPERTENSION” (Acceleron Pharma Inc., priority 2021, published 2024)

Legend:
[1] = biological target: T1, GDF11 (UniProt O95390 299-407); assay: cell-based or functional assay
T1 construct: also called Growth and differentiation factor-11; BMP11
T1 sequence (looked up): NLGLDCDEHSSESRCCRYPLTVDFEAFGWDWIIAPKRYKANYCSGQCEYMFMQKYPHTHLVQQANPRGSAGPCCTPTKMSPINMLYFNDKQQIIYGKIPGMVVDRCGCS

[2] = biological target: T2, GDF11 (Homo sapiens, UniProt O95390); assay: A204 cell-based pGL3(CAGA)12 reporter gene assay, signaling by GDF11; settings: for Inhibitory Potency of Homodimeric ActRIIB-Fc Constructs IC50 GDF11: Table 5, A204 cells, luciferase reporter, ND: not detectable over concentration range tested
T2 sequence (O95390 299-407): T1 sequence (looked up)
Description: (§1) To determine activity of variant ActRIIB-Fc polypeptides, an A204 cell-based assay was used to compare effects among variant ActRIIB-Fc polypeptides on signaling by activin A, activin B, GDF8, GDF11, BMP9, and BMP10, in comparison to ActRIIB-G1Fc. In brief, this assay uses a human A204 rhabdomyosarcoma cell line (ATCC®: HTB-82™) derived from muscle and the reporter vector pGL3(CAGA)12 (Dennler et al., 1998, EMBO 17: 3091-3100) as well as a Renilla reporter plasmid (pRLCMV) to control for transfection efficiency. The CAGA12 motif is present in TGF-β responsive genes (e.g., PAI-1 gene), so this vector is of general use for ligands that can signal through Smad2/3, including activin A. GDF11, and BMP9.
(§2) On day 1. A204 cells were transferred into one or more 48-well plates. On day 2, these cells were transfected with 10 μg pGL3(CAGA)12 or pGL3(CAGA)12(10 μg)+pRLCMV ([…]) and Fugene. On day 3, ligands diluted in medium containing 0.1% BSA were preincubated with ActRIIB-Fc polypeptides for 1 hr before addition to cells. Approximately six hour later, the cells were rinsed with PBS and lysed. Cell lysates were analyzed in a luciferase assay to determine the extent of Smad activation.
(§3) This assay was used to screen variant ActRIIB-Fc polypeptides for inhibitory effects on cell signaling by activin A, activin B. GDF8, GDF11. BMP9, and BMP10. Potencies of homodimeric Fc fusion polypeptides incorporating amino acid substitutions in the human ActRIIB extracellular domain were compared with that of an Fc fusion polypeptide comprising unmodified human ActRIIB extracellular domain, ActRIIB-G1Fc. For some variants tested, it was not possible to calculate an accurate IC50, but signs of inhibition in the slope of the curves were detectable. For these variants, an estimate was included of the order of magnitude of the relative IC50, i.e. >10 nM or >100 nM instead of a definite number. Such data points are indicated by a (*) in Table 3 below. For some variants tested, there was no detectable inhibition in the slope of the curves over the concentration range tested, which is indicated by “ND” in Table 4.
as §1, with “A,” for “A, activin B, GDF8,”, “GDF11,” for “GDF11, BMP9,”, “and BMP9.” for “and BMP10, in comparison to ActRIIB-G1Fc.”, “(Dennler el” for “(Dennler et”, “activin A,” for “activin A.”
(§4) On day 1, A-204 cells were transferred into one or more 48-well plates. On day 2, these cells were transfected with 10 μg pGL3(CAGA)12 or pGL3(CAGA)12(10 μg)+pRLCMV (1 μg) and Fugene. On day 3, ligands diluted in medium containing 0.1% BSA were preincubated with ActRIIB-Fc polypeptides for 1 hr before addition to cells. Approximately six hour later, the cells were rinsed with PBS and lysed. Cell lysates were analyzed in a luciferase assay to determine the extent of Smad activation.
(§5) This assay was used to screen variant ActRIIB-Fc polypeptides for inhibitory effects on cell signaling by activin A, GDF11, and BMP9. Potencies of homodimeric Fc fusion polypeptides incorporating amino acid substitutions in the human ActRIIB extracellular domain were compared with that of an Fc fusion polypeptide comprising unmodified human ActRIIB extracellular domain.

[3] = biological target: T3, BMP9 (Homo sapiens, UniProt Q9UK05); assay: Biacore-based binding assay (surface plasmon resonance), BMP9; settings: SPR 37° C., FIG. 9, compared to Fc fusion with unmodified ActRIIB extracellular domain
T3 sequence (Q9UK05 320-429): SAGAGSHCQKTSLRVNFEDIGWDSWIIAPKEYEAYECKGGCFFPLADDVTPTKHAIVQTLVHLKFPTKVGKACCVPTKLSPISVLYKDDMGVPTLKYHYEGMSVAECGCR
Procedure: To determine ligand binding profiles of variant ActRIIB-Fc homodimers, a Biacore™-based binding assay was used to compare ligand binding kinetics of certain variant ActRIIB-Fc polypeptides. ActRIIB-Fc polypeptides to be tested were independently captured onto the system using an anti-Fc antibody. Ligands were then injected and allowed to flow over the captured receptor protein. ActRIIB-G1Fc was used as the control polypeptide.
To determine ligand binding profiles of variant ActRIIB-Fc homodimers, a Biacore™-based binding assay was used to compare ligand binding kinetics of certain variant ActRIIB-Fc polypeptides. ActRIIB-Fc polypeptides to be tested were independently captured onto the system using an anti-Fc antibody. Ligands were then injected and allowed to flow over the captured receptor protein.
A Biacore™-based binding assay was used to compare the ligand binding kinetics of an ActRIIB-Fc:ActRIIB(L79E)-Fc heterodimer with those of unmodified ActRIIB-Fc homodimer. Fusion proteins were captured onto the system using an anti-Fc antibody. Ligands were then injected and allowed to flow over the captured receptor protein at 37° C. Results are summarized in the table below, in which ligand off-rates (kd) most indicative of effective ligand traps are denoted in bold.

[4] = biological target: T3, BMP9; assay: A204 cell-based pGL3(CAGA)12 reporter gene assay, signaling by BMP9; settings: for Inhibitory Potency of Homodimeric ActRIIB-Fc Constructs IC50 BMP9: Table 5, A204 cells, luciferase reporter, ND: not detectable over concentration range tested
Description: as §1, §2, §3
as §1, with “A,” for “A, activin B, GDF8,”, “GDF11,” for “GDF11, BMP9,”, “and BMP9.” for “and BMP10, in comparison to ActRIIB-G1Fc.”, “(Dennler el” for “(Dennler et”, “activin A,” for “activin A.”
as §4, §5

[5] = biological target: T4, Activin A (Homo sapiens, UniProt P08476); assay: A204 cell-based pGL3(CAGA)12 reporter gene assay, signaling by activin A; settings: for Inhibitory Potency of Homodimeric ActRIIB-Fc Constructs IC50 Activin A: Table 5, A204 cells, luciferase reporter
T4 sequence (P08476 311-426): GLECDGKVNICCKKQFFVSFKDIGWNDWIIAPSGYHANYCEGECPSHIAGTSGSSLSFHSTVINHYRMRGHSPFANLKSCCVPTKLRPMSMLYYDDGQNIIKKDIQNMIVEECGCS
Description: as §1, §2, §3
as §1, with “A,” for “A, activin B, GDF8,”, “GDF11,” for “GDF11, BMP9,”, “and BMP9.” for “and BMP10, in comparison to ActRIIB-G1Fc.”, “(Dennler el” for “(Dennler et”, “activin A,” for “activin A.”
as §4, §5

Substance	Inhibitory Potency of Homodimeric ActRIIB-Fc Constructs IC50 GDF11 [2] [µg/mL]	Inhibitory Potency of Homodimeric ActRIIB-Fc Constructs IC50 BMP9 [4] [µg/mL]	Inhibitory Potency of Homodimeric ActRIIB-Fc Constructs IC50 Activin A [5] [µg/mL]	also measured
Y60P (homodimeric ActRIIB-Fc construct) (Fc fusion)				IC50 (ng/ml), A204 CAGA12 luciferase reporter assay [1]: 544 ng/mL
F82W (homodimeric ActRIIB-Fc construct) (Fc fusion)				IC50 (ng/ml), A204 CAGA12 luciferase reporter assay [1]: 276 ng/mL
Y60P: homodimeric ActRIIB-Fc fusion, Y60P substitution in human ActRIIB extracellular domain	0.544			
F82I: homodimeric ActRIIB-G1Fc fusion with F82I substitution; mature SEQ ID NO: 39				reduction in affinity for BMP9 compared with reduction in affinity for GDF11 or activin A [3]: reduce ActRIIB binding affinity for BMP9 more than they reduce ActRIIB affinity for activin A or GDF11; reduction in affinity for BMP9 compared with reduction in affinity for GDF11 or activin A ([3]; listed as ActRIIB(F82I)-Fc): greater reduction in their affinity for BMP9 than for GDF11; inhibition of GDF11 compared to fusion polypeptide with unmodified ActRIIB extracellular domain (in words) ([2]; A204 reporter gene assay): essentially undiminished inhibition of activin A and GDF11; inhibition of BMP9 compared to fusion polypeptide with unmodified ActRIIB extracellular domain (in words) ([4]; A204 reporter gene assay): less potent inhibition of BMP9; selectivity of antagonism (activin A and GDF11 over BMP9) compared to unmodified ActRIIB-Fc ([4]; A204 reporter gene assay): more selective antagonists of activin A and GDF11; inhibition of activin A compared to fusion polypeptide with unmodified ActRIIB extracellular domain (in words) ([5]; A204 reporter gene assay): essentially undiminished inhibition of activin A and GDF11
L79R (homodimeric ActRIIB-Fc construct) (Fc fusion)				IC50 (ng/ml), A204 CAGA12 luciferase reporter assay [1]: 234 ng/mL
A24N: homodimeric ActRIIB-Fc fusion, A24N substitution in human ActRIIB extracellular domain	0.099	0.409	0.128	
K74R: homodimeric ActRIIB-Fc fusion, K74R substitution in human ActRIIB extracellular domain	0.045	0.165		
E50K: homodimeric ActRIIB-Fc fusion, E50K substitution in human ActRIIB extracellular domain	0.18	0.721	0.132	
E50P: homodimeric ActRIIB-Fc fusion, E50P substitution in human ActRIIB extracellular domain	0.638	~3	0.756	
Y60K (homodimeric ActRIIB-Fc construct) (Fc fusion)				IC50 (ng/ml), A204 CAGA12 luciferase reporter assay [1]: 414 ng/mL
F82W: homodimeric ActRIIB-Fc fusion, F82W substitution in human ActRIIB extracellular domain	0.276			
K55R: homodimeric ActRIIB-Fc fusion, K55R substitution in human ActRIIB extracellular domain	0.318	0.777	0.206	
E52A: homodimeric ActRIIB-Fc fusion, E52A substitution in human ActRIIB extracellular domain	0.071	0.359	0.198	
Y60K: homodimeric ActRIIB-Fc fusion, Y60K substitution in human ActRIIB extracellular domain	0.414			
E52K: homodimeric ActRIIB-Fc fusion, E52K substitution in human ActRIIB extracellular domain	0.296	~10	0.762	
K55D: homodimeric ActRIIB-Fc fusion, K55D substitution in human ActRIIB extracellular domain	0.365	5.5	0.396	
F82W/N83A: homodimeric ActRIIB-Fc fusion, F82W and N83A substitutions in human ActRIIB extracellular domain	0.389	~40		
L79R: homodimeric ActRIIB-Fc fusion, L79R substitution in human ActRIIB extracellular domain	0.234			
R40A: homodimeric ActRIIB-Fc fusion, R40A substitution in human ActRIIB extracellular domain	0.591	1.21		
